T1: human GPVI (full-length) expressed on stably transfected rat basophilic RBL-2H3 cells (human, UniProt Q9HCN6 21-339)
T1 sequence (looked up): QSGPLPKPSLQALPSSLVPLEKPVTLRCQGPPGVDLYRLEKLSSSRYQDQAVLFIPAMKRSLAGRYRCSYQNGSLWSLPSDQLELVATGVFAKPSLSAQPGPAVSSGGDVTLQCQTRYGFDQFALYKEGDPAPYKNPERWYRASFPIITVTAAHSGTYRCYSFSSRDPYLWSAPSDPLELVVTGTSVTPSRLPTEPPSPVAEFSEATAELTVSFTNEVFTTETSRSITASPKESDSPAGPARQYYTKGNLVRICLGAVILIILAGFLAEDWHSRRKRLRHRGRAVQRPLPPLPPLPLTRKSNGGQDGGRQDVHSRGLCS

T2: mouse GPVI on the cell surface of mouse platelets (mouse, UniProt P0C191 22-313)
T2 construct: whole, on cells; also called GPVI on murine platelets
T2 sequence (looked up): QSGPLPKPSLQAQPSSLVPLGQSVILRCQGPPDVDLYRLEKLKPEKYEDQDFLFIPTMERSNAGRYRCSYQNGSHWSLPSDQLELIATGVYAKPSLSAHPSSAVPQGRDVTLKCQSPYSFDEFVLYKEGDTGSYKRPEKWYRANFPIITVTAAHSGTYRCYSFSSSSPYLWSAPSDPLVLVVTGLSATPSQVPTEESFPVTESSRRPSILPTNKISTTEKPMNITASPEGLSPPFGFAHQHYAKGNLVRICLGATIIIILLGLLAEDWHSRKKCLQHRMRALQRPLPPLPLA

B1: Fab #4 comprising a modified heavy chain constant region (Fab, V domains shown)
VH: QVQLVQSGAEVKKPGASVKVSCKASGGAFTSSYMHWVRQAPGQGLEWMGIIEPTGASTLYAQRFQGRVTMTRDTSTSTVYMELSSLRSEDTAVYYCARTGIALPLGFDLWGQGTLVTVSS
VL: QSVLTQPPSVSAAPGQKVTISCSGSSSNIGNNYVSWYQQLPGTAPKLLIYDNNKRPSGIPDRFSGSKSGTSATLGITGLQTEDEADYYCAAWSTRFRWVFGGGTKLTVLG
notes: Human Fab from the Ylanthia library; produced in HKB11 cells; also called Fab #4 mod; HC
B2: Reference Control Antibody RefFab #1 (humanized GPVI antibody of WO2011073954A2, SANOFI) (Fab, V domains shown)
VH: EVQLLESGPGLVAPSGSLSITCTVSGFSLTGYGVNWVRQPPGKGLEWLGMIWGDGSTDYQSTLKSRLSISKDNSKSQVFLKMNSLRTDDTARYYCARDLPMDYWGLGTSVTVSS
VL: DIQMTQSPSSLSASVGGRVTITCKASQDINKYIAWYQHKPGKGPSLLIHYTSTLQPGVPSRFSGSGSGRDYSFSISNLQPEDIATYYCLQYANLLTFGGGTKLEIKR
notes: Cloned into mammalian Fab expression vectors; a glycine-serine linker (G4S)2 was added to the C-terminus of the Fab heavy chain
B3: Fab #1 comprising a modified heavy chain constant region (Fab, V domains shown)
VH: QVQLVQSGAEVKKPGASVKVSCKASGYTFTSHYMHWVRQAPGQGLEWMGLIEPSEGETEYAQRFQGRVTMTRDTSTSTVYMELSSLRSEDTAVYYCARDSSRSYPLGFDIWGQGTLVTVSS
VL: QSVLTQPPSVSAAPGQKVTISCSGSSSNIGNNYVSWYQQLPGTAPKLLIYDNNKRPSGIPDRFSGSKSGTSATLGITGLQTEDEADYYCAAWDFRSSRWVFGGGTKLTVLG
notes: Human Fab from the Ylanthia library; produced in HKB11 cells; also called Fab #1 mod; HC
B4: Fab #2 comprising a modified heavy chain constant region (Fab, V domains shown)
VH: QVQLVESGGGLVKPGGSLRLSCAASGFSFSDHYMSWIRQAPGKGLEWVSSVGSEGKFIDYAASVKGRFTISRDNAKNSLYLQMNSLRAEDTAVYYCARHYREFRWHYYYFDYWGQGTLVTVSS
VL: QSVLTQPPSVSGAPGQRVTISCTGSSSNIGAGYDVHWYQQLPGTAPKLLIYGNSNRPSGVPDRFSGSKSGTSASLAITGLQAEDEADYYCQSHDLGAHVWVFGGGTKLTVLG
notes: Human Fab from the Ylanthia library; produced in HKB11 cells; also called Fab #2 mod; HC
B5: Fab #3 comprising a modified heavy chain constant region (Fab, V domains shown)
VH: QVQLVESGGGLVKPGGSLRLSCAASGFSFGDYYVSWIRQAPGKGLEWVSAIGGSGSAVQYAESVKGRFTISRDNAKNSLYLQMNSLRAEDTAVYYCARHYREFRWHYYYFDYWGQGTLVTVSS
VL: B4 VL
notes: Human Fab from the Ylanthia library; produced in HKB11 cells; also called Fab #3 mod; HC

Assays:
[1] = target: T1, human GPVI (full-length) expressed on …; experiment: cell-based or functional assay
[2] = target: T3, mouse GPVI extracellular domain fused at its C-terminus to human IgG1 Fc (GPVI-Fc) (mouse; human); experiment: ELISA, coated GPVI-Fc, Fab titrated
T3 construct: also called mGPVI; mouse GPVI-Fc
Procedure: (§1) 0.5-2 nM of recombinant GPVI-Fc-fusion proteins (as described in Example 1) were coated overnight on Maxisorp microtiter plates at 4° C. […] Following washing with PBST, Fabs (comprising a modified heavy chain constant region) serially diluted to concentrations in the range of 600 nM to 1 pM in PBST with 5% skim milk powder (MPBST) were added for 1 h at RT. Plates were washed with PBST. Bound Fab was detected using an alkaline phosphatase-conjugated detection antibody (Jackson Immuno Research) diluted in MPBST and directed against human F(ab′)2 fragment. After washing with TBS supplemented with 0.05% Tween-20 (TBST), AttoPhos substrate (Roche) diluted in ddH2O was added and fluorescence intensity measured at a Tecan Infinite 200Pro reader. EC50 values were calculated using Prism 5 software (GraphPad).

[3] = target: T4, rat GPVI extracellular domain fused at its C-terminus to human IgG1 Fc (GPVI-Fc) (rat; human); experiment: ELISA, coated GPVI-Fc, Fab titrated
T4 construct: also called rGPVI
Procedure: as §1

[4] = target: T5, human GPVI-1A extracellular domain fused at its C-terminus to human IgG1 Fc (GPVI-Fc) (human); experiment: ELISA, coated GPVI-Fc, Fab titrated
T5 construct: also called hGPVI-1a; hGPVI
Procedure: as §1

[5] = target: T6, human GPVI-1B extracellular domain fused at its C-terminus to human IgG1 Fc (GPVI-Fc) (human); experiment: ELISA, coated GPVI-Fc, Fab titrated
T6 construct: Low frequency haplotype 'b'; also called hGPVI-lb; hGPVI-1b
Procedure: as §1

[6] = target: T7, human GPVI-2A extracellular domain fused at its C-terminus to human IgG1 Fc (GPVI-Fc) (human); experiment: ELISA, coated GPVI-Fc, Fab titrated
T7 construct: Isoform 2, haplotype 'a'; also called hGPVI-2a
Procedure: as §1

[7] = target: T8, cynomolgus monkey GPVI extracellular domain fused at its C-terminus to human IgG1 Fc (GPVI-Fc) (cynomolgus monkey; human); experiment: ELISA, coated GPVI-Fc, Fab titrated
T8 construct: also called cyGPVI-2; cyGPVI
Procedure: as §1

[8] = target: T8, cynomolgus monkey GPVI extracellular …; experiment: Competition ELISA (MSD): cynomolgus GPVI-Fc preincubated with Fab, then on coated VitroCol (competitor)
Procedure: (§2) 1 or 10 μg/ml of recombinant GPVI collagen substrate (crosslinked collagen-related peptide (CRP-XL (Anaspec, Inc.), rat-tail collagen (Enzo Life Sciences) or VitroCol (Advanced BioMatrix, Inc.) was coated on a MSD-plate over night at 4° C., washed with PBST, blocked for 1 h at RT with PBS supplemented with 0.05% Tween-20 and 3% skim milk powder, and subsequently washed again with PBST. Purified recombinant GPVI antigens (human, cynomolgus monkey or mouse GPVI as prepared in Example 1) diluted in PBS and varying concentrations of Fab (comprising a modified heavy chain constant region) diluted in PBS (final concentration range 200-0.3 μg/ml) were incubated in a polypropylene plate for 30 min at RT. Fab/GPVI-Fc mixture was added to coated collagen substrate for 1 h at RT. After washing with PBST, bound GPVI form different species was detected using an ECL-conjugated detection antibody directed against human Fc (Jackson Immuno Research) for 1 h at RT. MSD read buffer (Meso Scale Discovery) was added prior to readout in a Sector Imager6000 (Meso Scale Discovery).

[9] = target: T8, cynomolgus monkey GPVI extracellular …; experiment: Competition ELISA (MSD): cynomolgus GPVI-Fc preincubated with Fab, then on coated rat-tail collagen (competitor)
Procedure: as §2

[10] = target: T2, mouse GPVI on the cell surface of mouse …; experiment: FACS on washed murine platelets from PRP (one exemplary donor), PE-conjugated detection antibody, median fluorescence
Procedure: Platelet-rich plasma (PRP) from up to 4 donors was prepared by centrifugation of citrated whole blood for 15 min at 150×g without brake. The resulting supernatant was transferred as PRP into a new sample tube without disturbing the underlying leukocyte-rich interphase. After careful washing in Tyrode's buffer supplemented with Prostacyclin 1₂ (PGI2; Epoprostenol-Rotexmedica), platelets were resuspended in Tyrode's/PGI2 and transferred to 96 well V-bottom microtiter plates. Platelets were spiked with Fab (comprising a modified heavy chain constant region) diluted to final concentrations between 0.015-30 μg/ml in Tyrode's/PGI2 and incubated for 30 min at RT. Platelets were carefully washed to remove non-bound Fab and then incubated for 30 min at RT with a Phycoerythrine (PE)-conjugated detection antibody (Jackson ImmunoResearch). After incubation for 30 min at RT, platelets were analyzed by flow cytometry in a FACS Canto II (Becton Dickinson). In the case of Fab directly conjugated with PE (FIG. 1D), incubation with detection antibody was omitted. Data was evaluated using FACS Diva software (Becton Dickinson). EC50 values were calculated using Prism 5 software (GraphPad).

| Binder | Cell adhesion assay IC50 [nM], coated VitroCol [1] | Cell adhesion assay Max. inhibition at 200 nM Fab [%], coated VitroCol [1] | EC50 [2] | EC50 [3] | EC50 [4] | EC50 [5] | EC50 [6] | EC50 [7] | IC50 [8] | Max. inhibition at 200 nM Fab [%] [8] | IC50 [9] | Max. inhibition at 200 nM Fab [%] [9] | EC50 (read off the curve) [10] | Cell adhesion assay IC50 [nM], coated CRP-XL [1] | Cell adhesion assay Max. inhibition at 200 nM Fab [%], coated CRP-XL [1] | binding result [3] |
| --- | --- | --- | --- | --- | --- | --- | --- | --- | --- | --- | --- | --- | --- | --- | --- | --- |
| B1 | 0.57 nM | 59% | 1 nM | 9.32 nM | 0.41 nM | 0.48 nM | 0.74 nM | 0.5 nM | 8.1 nM | 91% | 9.1 nM | 83% | ~0.2 µg/mL | – | – | – |
| B2 | 1.17 nM | 92% | – | – | 0.93 nM | 1 nM | 1.43 nM | 0.58 nM | 5.5 nM | 100% | 8.8 nM | 99% | – | 2.69 nM | 100% | – |
| B3 | 0.58 nM | 55% | – | – | 0.46 nM | 0.66 nM | 0.93 nM | 0.53 nM | 9.7 nM | 84% | 9.6 nM | 86% | ~3 µg/mL | – | – | binds |
| B4 | 0.89 nM | 93% | 6.55 nM | 53.1 nM | 0.41 nM | 0.45 nM | 0.65 nM | 0.42 nM | 4.3 nM | 100% | 7.1 nM | 100% | ~0.5 µg/mL | 1.59 nM | 100% | – |
| B5 | 0.84 nM | 91% | 1.36 nM | 9.65 nM | 0.35 nM | 0.39 nM | 0.48 nM | 0.37 nM | 4.7 nM | 100% | 7.6 nM | 99% | ~0.3 µg/mL | 1.81 nM | 100% | – |
